{
  "source": "paper PMC9057599",
  "target": "histone H4 N-terminus, 1-30 (UniProt P62805)",
  "assay": "biotin-peptide pulldown, blot",
  "settings": "reference: wild type ZMYND8; sites S486,S490",
  "data": [
    {"substance": "ZMYND8 (from UniProt Q9ULU4) 2SA (S486A/S490A)", "values": [
      {"measurement": "binding against the reference", "value": "stronger"}
    ]}
  ]
}
